Test results published in publication PMC9209732, “Transcriptional Regulation of ING5 and its Suppressive Effects on Gastric Cancer”.

Target: YY1 (UniProt P25490 1-414)
Assay: EMSA; EMSA: 5-10 ug protein, 50 nM probe, 5% non-denaturing PAGE, streptavidin-HRP/ECL; buffer, salt, pH and temperature not stated
Settings: protein: recombinant; tags: His (GST also stated in Results); label: 3' biotin; blunt

Chain of YY1 (P25490 whole entry): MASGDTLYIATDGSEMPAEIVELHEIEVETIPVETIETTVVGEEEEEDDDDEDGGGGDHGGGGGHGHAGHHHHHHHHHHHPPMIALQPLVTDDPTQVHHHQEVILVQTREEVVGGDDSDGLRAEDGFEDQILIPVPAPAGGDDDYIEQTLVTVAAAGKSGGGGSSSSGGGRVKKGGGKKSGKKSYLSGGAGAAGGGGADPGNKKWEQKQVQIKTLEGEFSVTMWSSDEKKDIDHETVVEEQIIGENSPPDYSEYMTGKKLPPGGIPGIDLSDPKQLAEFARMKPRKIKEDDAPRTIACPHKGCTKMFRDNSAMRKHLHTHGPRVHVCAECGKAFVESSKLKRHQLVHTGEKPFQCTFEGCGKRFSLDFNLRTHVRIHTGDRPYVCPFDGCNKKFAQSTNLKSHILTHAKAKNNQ

B1: ING5 promoter probe (-48 to 25) (dsDNA)
DNA 1: CGCTGGCACCGCCCCGCCCCCGCCTCCCGCGGCACCGCCCGCCCGCGCAGACCCCGAGCGCGGCCGCGGACGAA
DNA 2: TTCGTCCGCGGCCGCGCTCGGGGTCTGCGCGGGCGGGCGGTGCCGCGGGAGGCGGGGGCGGGGCGGTGCCAGCG
B1: binds.
